Read-outs that look alike come from different tables or passages of the source.
Columns and labels:
[1] = target: human ferroportin (FPN), wild type, reconstituted in lipid nanodisc (human, UniProt Q9NP59); experiment: cryo-EM structure
[2] = target: Rhodamine green-hepcidin (human); experiment: fluorescence polarisation
[3] = target: Rhodamine green-hepcidin (human); experiment: fluorescence polarisation; remark: listed apart in the source
[4] = target: Rhodamine green-hepcidin (human); experiment: fluorescence polarisation; remark: listed apart in the source
[5] = target: Rhodamine green-hepcidin (human); experiment: fluorescence polarisation; remark: listed apart in the source

binding result [1] | Kd [2] [nM] | Kd [3] [nM] | Kd [4] [nM] | Kd [5] [nM] | Binder
binds |  |  |  |  | Fab45D8 (Fab, V domains shown) VH: EVQLQESGPGLAKPSQTLSLTCSVTGSSITSDYWNWIRKFPGNKLEYMGYISYSGSTYYNPSLKSQISITRDTSKNHYYLQLNSVTTEDTATYYCARQGLRNWYFDVWGTGTTVTVSS VL: DIVLTQSPASLPVSLGQRATISCRASKSVSASAYSYMHWYQQKPGQPPKPLIYLASNLESGVPARFSGSGSGTDFTLNIHPVEEEDAATYYCQHNRELPYTFGGGTKLEIK
 | 210 | 7.8 | 7.7 | 2.5 | human ferroportin (FPN), wild type, reconstituted in lipid nanodisc (natural protein) MTRAGDHNRQRGCCGSLADYLTSAKFLLYLGHSLSTWGDRMWHFAVSVFLVELYGNSLLLTAVYGLVVAGSVLVLGAIIGDWVDKNARLKVAQTSLVVQNVSVILCGIILMMVFLHKHELLTMYHGWVLTSCYILIITIANIANLASTATAITIQRDWIVVVAGEDRSKLANMNATIRRIDQLTNILAPMAVGQIMTFGSPVIGCGFISGWNLVSMCVEYVLLWKVYQKTPALAVKAGLKEEETELKQLNLHKDTEPKPLEGTHLMGVKDSNIHELEHEQEPTCASQMAEPFRTFRDGWVSYYNQPVFLAGMGLAFLYMTVLGFDCITTGYAYTQGLSGSILSILMGASAITGIMGTVAFTWLRRKCGLVRTGLISGLAQLSCLILCVISVFMPGSPLDLSVSPFEDIRSRFIQGESITPTKIPEITTEIYMSNGSNSANIVPETSPESVPIISVSLLFAGVIAARIGLWSFDLTVTQLLQENVIESERGIINGVQNSMNYLLDLLHFIMVILAPNPEAFGLLVLISVSFVAMGHIMYFRFAQNTLGNKLFACGPDAKEVRKENQANTSVV

From article doi:10.1101/2020.03.16.993006 (bioRxiv, 2020)
